Positions count from the first letter of the chain named.
B1: CA172 (antibody, V domains shown)
VH: QVQLVESGGGLVKPGGSLRLSCAASGFTFSDYYMSWIRQAPGKGLEWVSYISSSSSYTNYADSVKGRFTISRDNAKNSLYLQMNSLRAEDTAVYYCARALRYFDWYDYWGQGTLVTVSS
VL: EIVLTQSPDFQSVTPKGKVTITCRASQSIGSSLHWYQQKPDQSPKLLIKYASQSFSGVPSRFSGSGSGTEFTLTISSLQPEDFATYYCQQLNSYSPITFGQGTRLEIK
B2: CA177 (antibody, V domains shown)
VH: RCSCRSRAPGLVKPSETLSLTCTVSGGSISSYYWSWIRQPPGKGLEWIGYIYYSGSTNYNPSLKSRVTISVDTSKNQFSLKLSSVTAADTAVYYCASHDYTDHAAGYWGQGTLVTVSS
VL: not shown
B3: CA163 (antibody, V domains shown)
VH: QVQLVQSGAGASVKVSCKASGNTFTSYGISWVRQAPGQGLEWMGWIIPYNGNTNYAQKFQGRVTMTTDTSTSTAYMELRSLRSDDTAVYYCARDGEVGAFDNYYYYCGYGVIVTTAS
VL: not shown
B4: CA168 (antibody, V domains shown)
VH: QVQLVQSGAEVKKPGSSVKVSCKASGGTFSSYAISWVRQAPGQGLEWMGGIIPIFGTANYAQKFQGRVTITADKSTSTAYMELSSLRSEDTAVYYCARALTYYDFPDYGMDVWGQGTTVTVSS
VL: QSALTQPPSASGSPGQSVTISCTGTSSDVGGYNYVSWYQQHPGKVPKLMIYEVTKRPSGVPDRFSGSKSGNTASLTVSGLQAEDEADYYCSSYAGSNNLVFGGGTKLTVL
B5: CA173 (antibody, V domains shown)
VH: EVQLVESGGGLVKPGGSLRLSCAASGFTFSSYSMNWVRQAPGEGLEWVSSISSSSTYIYYADSVKGRFTISRDNAKNSLYLQMNSLRAEDTAVYYCARDRPAGSSSLGSGYFDLWGRGTLVTVSS
VL: not shown
B6: CA176 (antibody, V domains shown)
VH: QVQLVESGGGVVQPGRSLRLSCAASGFTFSSYGMHWVRQAPGKGLEWVAVISYDGSNKYYADSVKGRFTISRDNSKNTLYLQMNSLRAEDTAVYYCAKDEGSSDFWSGYYASFDYWGQGTLVTVSS
VL: DIQMTQSPISLSASVGDRVTITCRASQDISNYLTWYQQKPGKAPKLLIYAASSLQSGVPSRFSGSGSGTDFTLTISNLQPEDFATYYCQQNYSYPCTFGQGTKVEIK
B7: CA166 (antibody, V domains shown)
VH: EVQLVESGGGLVKPGGSLRLSCAASGFTFSSYSMNWVRQAPGKGLEWVSSISSSSSYIYYADSVKGRFTISRDNAKNSLYLQMNSLRAEDTAVYYCARVMITFGGADYWGQGTLVTVSS
VL: DIQMTQSPSSLSASVGDRVTITCRASQNINTYLNWYQKRPGIAPKLLIYGASSLQSGVPSRFSGSGSGTDFTLTISSLQPEDFATYYCQQYHTSPLTFGGGTPVDIK
B8: CA170 (antibody, V domains shown)
VH: B7 VH with V99D, M100R, I101D, T102L, F103L, G104D, G105A, A106F, Y108I, L114M
VL: SYVLTQPPSVSVAPGQTARITCGGNNIGSKSVHWYQQKPGQAPVLVVYDDSDRPSGIPERFSGSNSGNTATLTISRVEAGDEADYYCQVWDSSSDHPWVFGGGTKLTVL
B9: CA178 (antibody, V domains shown)
VH: QVQLVQSGAEVKKPGSSVKVSCKASGGTFSSYAISWVRQAPGQGLEWMGGIIPIFGTANYAQKFQGRVTITADESTSTAYMELSSLRSEDTAVYYCARDYGGSYYYEYFQHWGQGTLVTVSS
VL: not shown
B10: CA180 (antibody, V domains shown)
VH: QVQLVQSGAEVKKPGASVKVSCKASGYTFTSYGISWVRQAPGQGLEWMGWISAYNGNTNYAQKLQGRVTMTTDTSTSTAYMELRSLRSDDTAVYYCARDLGYSSSWYTSNWFDPWGQGTLVTVSS
VL: QSALTQPASVSGSPGQSITISCTGTSSDVGSYNLVSWYQQHPGKAPKLMIYEGSKRPSGVSNRFSGSKSGNTASLTISGLQAEDEADYYCCSYAGSSTVVFGGGTKLTVL
B11: CA169 (antibody, V domains shown)
VH: EVQLVESGGGLVKPGGSLRLSCAASGFTFSSYSMNWVRQAPGKGLEWVSSISSSSSYIYYADSVKGRFTISRDNAKNSLYLQMNSLRAEDTAVYYCASGVLLEAFDYWGQGTLVTVSS
VL: SYVLTQPPSVSVAPGQTARITCGGNNIGSKSVHWYQQKPGQAPVLVVYDDSDRPSGIPERFSGSNSGNTATLTISRVEAGDEADYYCQVWDSSSDHVVFGGGTKLTVL
B12: CA175 (antibody, V domains shown)
VH: EVQLVESGGGLVQPGGSLRLSCAASGFTFSTYPMNWVRQAPGKGLEWVSYISSSSSTIYYADCVKGRFTISRDNAKNSLYLQMNSLRDEDTAVYYCARYYIAYGMDVWGQGTTVTVSS
VL: DIQMTQSPSSMSASVGDRVTITCRASQGISNYLAWFQQKPGKAPKRLIYGASSLHRGVPSRFSGSGSGTEFTLTITSLQPEDFATYYCLQHNTYPRTFGQGTKVEIK
B13: CA171 (antibody, V domains shown)
VH: EVQLVESGGGLVQPGGSLRLSCAASGFTFSSYSMNWVRQAPGKGLEWVSYISSSSSTIYYADSVKGRFTISRDNAKNSLYLQMNSLRAEDTAVYYCARTFYSNYLDAFDIWGQGTMVTVSS
VL: EIVLTQSPDTLSMCPGERATLSCRASQSVSSYLAWYQQKPGQAPRLLIYDASNRATGIPARFSGSGSGTDFTLTISSLEPEDFAVYYCQQRSNWLSMYTFGQGTKLEIK

Molecular target: soluble HLA-E-VL9, HLA-E*01:03 heavy chain refolded with β2-microglobulin and synthetic VL9 peptide (Homo sapiens, HLA-E*01:03, strain)

Row | binding result | Binder
1 | binds | B1
2 | binds | B2
3 | binds | B3
4 | binds | B4
5 | binds | B5
6 | binds | B6
7 | binds | B7
8 | binds | B8
9 | binds | B9
10 | binds | B10
11 | binds | B11
12 | binds | B12
13 | binds | B13
